These results are taken from doi:10.64898/2025.12.16.694593 (bioRxiv, 2025).

Series [1] concerns the target T1, Mtb Ku (from Ku-HIS, TEV-cleaved) (Mycobacterium tuberculosis, UniProt A5U0X7 1-273).
T1 sequence: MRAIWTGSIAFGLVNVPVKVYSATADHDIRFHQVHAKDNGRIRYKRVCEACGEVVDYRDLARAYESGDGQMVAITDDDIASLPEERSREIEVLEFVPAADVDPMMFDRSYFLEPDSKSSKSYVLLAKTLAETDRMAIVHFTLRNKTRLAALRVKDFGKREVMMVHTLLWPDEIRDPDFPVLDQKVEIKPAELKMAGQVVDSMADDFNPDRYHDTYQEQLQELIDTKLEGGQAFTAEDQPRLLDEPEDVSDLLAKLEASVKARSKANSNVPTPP
The series can be described thus: EMSA.

In series [2] the target is T2, Mtb Ku released from RFP-Ku by TEV (Mycobacterium tuberculosis, UniProt A5U0X7 1-273).
T2 sequence: T1 sequence
Put plainly: EMSA.

B1: 50 bp blunt end (dsDNA)
DNA 1: GCTAAGTCATCGTCTGTCGATCGATCTCTCGAGTAGTACAGGTCTAGAGG
DNA 2: CCTCTAGACCTGTACTACTCGAGAGATCGATCGACAGACGATGACTTAGC
Turning to B1, the binding result in series [1] is on record as “binds”.

B2: 32/20dT DNA (called 30 bp/20 dT in legends) (dsDNA)
DNA 1: GCCCTGCTGCCGACCAACGATGGTTACATTCC
DNA 2: GGAATGTAACCATCGTTGGTCGGCAGCAGGGCTTTTTTTTTTTTTTTTTTTT
B2: the binding result in series [2] and in series [1] was “binds” in each case.
